{"source": "paper PMC10786891", "about": "“Massively parallel profiling of RNA-targeting CRISPR-Cas13d”", "data": [{"target": "T1, EsCas13d, nuclease-dead (Eubacterium siraeum, UniProt B0MS50, R295A;H300A;R849A;H854A)", "T1 sequence": "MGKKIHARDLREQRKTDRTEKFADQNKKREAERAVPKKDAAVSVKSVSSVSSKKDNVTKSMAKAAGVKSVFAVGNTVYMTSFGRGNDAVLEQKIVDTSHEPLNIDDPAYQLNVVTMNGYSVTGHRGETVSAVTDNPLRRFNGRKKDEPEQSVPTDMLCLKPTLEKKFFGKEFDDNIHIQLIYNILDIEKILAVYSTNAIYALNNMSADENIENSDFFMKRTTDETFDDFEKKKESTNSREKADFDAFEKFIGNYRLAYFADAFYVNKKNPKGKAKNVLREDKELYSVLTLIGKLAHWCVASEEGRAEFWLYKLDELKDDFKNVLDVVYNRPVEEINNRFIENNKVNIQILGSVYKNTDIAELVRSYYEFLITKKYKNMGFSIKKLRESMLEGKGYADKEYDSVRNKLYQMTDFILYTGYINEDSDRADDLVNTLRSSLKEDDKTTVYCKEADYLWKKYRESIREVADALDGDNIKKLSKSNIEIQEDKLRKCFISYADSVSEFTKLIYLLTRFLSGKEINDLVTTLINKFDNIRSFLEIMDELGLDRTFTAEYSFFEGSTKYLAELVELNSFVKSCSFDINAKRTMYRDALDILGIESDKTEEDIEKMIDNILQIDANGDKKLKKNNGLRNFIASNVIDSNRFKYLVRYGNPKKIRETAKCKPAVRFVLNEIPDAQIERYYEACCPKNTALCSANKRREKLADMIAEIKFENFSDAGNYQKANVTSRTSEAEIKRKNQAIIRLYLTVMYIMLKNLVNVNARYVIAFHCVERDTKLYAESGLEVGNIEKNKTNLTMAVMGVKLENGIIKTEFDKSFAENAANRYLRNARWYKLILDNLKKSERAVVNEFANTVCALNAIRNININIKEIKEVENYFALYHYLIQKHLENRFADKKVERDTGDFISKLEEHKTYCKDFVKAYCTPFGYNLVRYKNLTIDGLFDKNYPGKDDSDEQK", "test": "crRNA (strand 1, pre-loaded); Mg2+; 40 mM Tris-HCl pH 7.5, 150 mM NaCl, 6 mM MgCl2, 1 mM DTT, 0.1% Tween-20, 0.2 mg/ml BSA; 25 C; 10 min per concentration, then washed", "conditions": "tags: His6-TwinStrep-SUMO cleaved; N-terminal SNAP kept (SNAP-Surface 488); label: 3' end held by stalled T7 RNA polymerase", "units": {"Kd": "nM"}, "values": [{"binder": "target 1 insC 3' of 10,insA 3' of 6 (mixed) RNA 1: CACCCGUGCAAAAAUGCAGGGGUCUAAAACUGAGCGGAUAACCUCUCUAUGG RNA 2: GGGAAUGGAUCCACAUCUACGAAUUCGUACCAUAGAGAGGUUCAUCCAGCUCACCGAGAUCGGAAGAGCACACGU", "Kd": "25.5 ± 2.5"}, {"binder": "target 1 A1U,C2U (mixed) RNA 1: CACCCGUGCAAAAAUGCAGGGGUCUAAAACUGAGCGGAUAACCUCUCUAUGG RNA 2: GGGAAUGGAUCCACAUCUACGAAUUCGUACCAUAGAGAGGUUAUCCGCUUUCCGAGAUCGGAAGAGCACACGU", "Kd": "9.6 ± 0.5"}, {"binder": "target 1 U8C,G15A (mixed) RNA 1: CACCCGUGCAAAAAUGCAGGGGUCUAAAACUGAGCGGAUAACCUCUCUAUGG RNA 2: GGGAAUGGAUCCACAUCUACGAAUUCGUACCAUAGAAAGGUUACCCGCUCACCGAGAUCGGAAGAGCACACGU", "Kd": "26.8 ± 2.1"}, {"binder": "target 1 C6U,U8A (mixed) RNA 1: CACCCGUGCAAAAAUGCAGGGGUCUAAAACUGAGCGGAUAACCUCUCUAUGG RNA 2: GGGAAUGGAUCCACAUCUACGAAUUCGUACCAUAGAGAGGUUAACUGCUCACCGAGAUCGGAAGAGCACACGU", "Kd": "15.1 ± 0.5"}, {"binder": "target 1 G17C,C22U (mixed) RNA 1: CACCCGUGCAAAAAUGCAGGGGUCUAAAACUGAGCGGAUAACCUCUCUAUGG RNA 2: GGGAAUGGAUCCACAUCUACGAAUUCGUAUCAUACAGAGGUUAUCCGCUCACCGAGAUCGGAAGAGCACACGU", "Kd": "62 ± 11"}, {"binder": "target 1 insU 3' of 9,insG 3' of 2 (mixed) RNA 1: CACCCGUGCAAAAAUGCAGGGGUCUAAAACUGAGCGGAUAACCUCUCUAUGG RNA 2: GGGAAUGGAUCCACAUCUACGAAUUCGUACCAUAGAGAGGUUAUUCCGCUCGACCGAGAUCGGAAGAGCACACGU", "Kd": "24.6 ± 3.2"}, {"binder": "target 1 G17A,U19A (mixed) RNA 1: CACCCGUGCAAAAAUGCAGGGGUCUAAAACUGAGCGGAUAACCUCUCUAUGG RNA 2: GGGAAUGGAUCCACAUCUACGAAUUCGUACCAAAAAGAGGUUAUCCGCUCACCGAGAUCGGAAGAGCACACGU", "Kd": "54 ± 8"}, {"binder": "target 1 insC 3' of 13,insC 3' of 13 (mixed) RNA 1: CACCCGUGCAAAAAUGCAGGGGUCUAAAACUGAGCGGAUAACCUCUCUAUGG RNA 2: GGGAAUGGAUCCACAUCUACGAAUUCGUACCAUAGAGAGCCGUUAUCCGCUCACCGAGAUCGGAAGAGCACACGU", "Kd": "35 ± 5"}, {"binder": "target 1 insC 3' of 9,insA 3' of 8 (mixed) RNA 1: CACCCGUGCAAAAAUGCAGGGGUCUAAAACUGAGCGGAUAACCUCUCUAUGG RNA 2: GGGAAUGGAUCCACAUCUACGAAUUCGUACCAUAGAGAGGUUACUACCGCUCACCGAGAUCGGAAGAGCACACGU", "Kd": "8.8 ± 0.5"}, {"binder": "target 1 U8C,A9C (mixed) RNA 1: CACCCGUGCAAAAAUGCAGGGGUCUAAAACUGAGCGGAUAACCUCUCUAUGG RNA 2: GGGAAUGGAUCCACAUCUACGAAUUCGUACCAUAGAGAGGUUCCCCGCUCACCGAGAUCGGAAGAGCACACGU", "Kd": "30.5 ± 2.7"}, {"binder": "target 1 A1U,A20U (mixed) RNA 1: CACCCGUGCAAAAAUGCAGGGGUCUAAAACUGAGCGGAUAACCUCUCUAUGG RNA 2: GGGAAUGGAUCCACAUCUACGAAUUCGUACCUUAGAGAGGUUAUCCGCUCUCCGAGAUCGGAAGAGCACACGU", "Kd": "35.1 ± 1.9"}, {"binder": "target 1 insA 3' of 8,insC 3' of 8 (mixed) RNA 1: CACCCGUGCAAAAAUGCAGGGGUCUAAAACUGAGCGGAUAACCUCUCUAUGG RNA 2: GGGAAUGGAUCCACAUCUACGAAUUCGUACCAUAGAGAGGUUAUACCCGCUCACCGAGAUCGGAAGAGCACACGU", "Kd": "13.2 ± 0.6"}, {"binder": "target 1 insG 3' of 16,insC 3' of 8 (mixed) RNA 1: CACCCGUGCAAAAAUGCAGGGGUCUAAAACUGAGCGGAUAACCUCUCUAUGG RNA 2: GGGAAUGGAUCCACAUCUACGAAUUCGUACCAUAGAGGAGGUUAUCCCGCUCACCGAGAUCGGAAGAGCACACGU", "Kd": "24.3 ± 2"}, {"binder": "target 1 U11G,G12A (mixed) RNA 1: CACCCGUGCAAAAAUGCAGGGGUCUAAAACUGAGCGGAUAACCUCUCUAUGG RNA 2: GGGAAUGGAUCCACAUCUACGAAUUCGUACCAUAGAGAGAGUAUCCGCUCACCGAGAUCGGAAGAGCACACGU", "Kd": "4.27 ± 0.21"}, {"binder": "target 1 insC 3' of 22,insA 3' of 8 (mixed) RNA 1: CACCCGUGCAAAAAUGCAGGGGUCUAAAACUGAGCGGAUAACCUCUCUAUGG RNA 2: GGGAAUGGAUCCACAUCUACGAAUUCGUACCCAUAGAGAGGUUAUACCGCUCACCGAGAUCGGAAGAGCACACGU", "Kd": "31.4 ± 2.8"}, {"binder": "target 1 insC 3' of 5,insU 3' of 5 (mixed) RNA 1: CACCCGUGCAAAAAUGCAGGGGUCUAAAACUGAGCGGAUAACCUCUCUAUGG RNA 2: GGGAAUGGAUCCACAUCUACGAAUUCGUACCAUAGAGAGGUUAUCCGCUCUCACCGAGAUCGGAAGAGCACACGU", "Kd": "9.3 ± 0.5"}, {"binder": "target 1 C4A,A16C (mixed) RNA 1: CACCCGUGCAAAAAUGCAGGGGUCUAAAACUGAGCGGAUAACCUCUCUAUGG RNA 2: GGGAAUGGAUCCACAUCUACGAAUUCGUACCAUAGCGAGGUUAUCCGAUCACCGAGAUCGGAAGAGCACACGU", "Kd": "49 ± 11"}, {"binder": "target 1 A20U (mixed) RNA 1: CACCCGUGCAAAAAUGCAGGGGUCUAAAACUGAGCGGAUAACCUCUCUAUGG RNA 2: GGGAAUGGAUCCACAUCUACGAAUUCGUACCUUAGAGAGGUUAUCCGCUCACCGAGAUCGGAAGAGCACACGU", "Kd": "50 ± 5"}, {"binder": "target 1 insA 3' of 13,insG 3' of 9 (mixed) RNA 1: CACCCGUGCAAAAAUGCAGGGGUCUAAAACUGAGCGGAUAACCUCUCUAUGG RNA 2: GGGAAUGGAUCCACAUCUACGAAUUCGUACCAUAGAGAGAGUUAGUCCGCUCACCGAGAUCGGAAGAGCACACGU", "Kd": "6.9 ± 0.5"}, {"binder": "target 1 G17A,U19C (mixed) RNA 1: CACCCGUGCAAAAAUGCAGGGGUCUAAAACUGAGCGGAUAACCUCUCUAUGG RNA 2: GGGAAUGGAUCCACAUCUACGAAUUCGUACCACAAAGAGGUUAUCCGCUCACCGAGAUCGGAAGAGCACACGU", "Kd": "46 ± 6"}, {"binder": "target 1 insU 3' of 12,insG 3' of 9 (mixed) RNA 1: CACCCGUGCAAAAAUGCAGGGGUCUAAAACUGAGCGGAUAACCUCUCUAUGG RNA 2: GGGAAUGGAUCCACAUCUACGAAUUCGUACCAUAGAGAGGUUUAGUCCGCUCACCGAGAUCGGAAGAGCACACGU", "Kd": "13.3 ± 0.8"}, {"binder": "target 1 insA 3' of 15,insG 3' of 10 (mixed) RNA 1: CACCCGUGCAAAAAUGCAGGGGUCUAAAACUGAGCGGAUAACCUCUCUAUGG RNA 2: GGGAAUGGAUCCACAUCUACGAAUUCGUACCAUAGAGAAGGUUGAUCCGCUCACCGAGAUCGGAAGAGCACACGU", "Kd": "13.6 ± 1.8"}, {"binder": "target 1 A1G,A20U (mixed) RNA 1: CACCCGUGCAAAAAUGCAGGGGUCUAAAACUGAGCGGAUAACCUCUCUAUGG RNA 2: GGGAAUGGAUCCACAUCUACGAAUUCGUACCUUAGAGAGGUUAUCCGCUCGCCGAGAUCGGAAGAGCACACGU", "Kd": "37.8 ± 2.3"}, {"binder": "target 1 G5A,A14G (mixed) RNA 1: CACCCGUGCAAAAAUGCAGGGGUCUAAAACUGAGCGGAUAACCUCUCUAUGG RNA 2: GGGAAUGGAUCCACAUCUACGAAUUCGUACCAUAGAGGGGUUAUCCACUCACCGAGAUCGGAAGAGCACACGU", "Kd": "42 ± 4"}, {"binder": "target 1 G5C,U8A (mixed) RNA 1: CACCCGUGCAAAAAUGCAGGGGUCUAAAACUGAGCGGAUAACCUCUCUAUGG RNA 2: GGGAAUGGAUCCACAUCUACGAAUUCGUACCAUAGAGAGGUUAACCCCUCACCGAGAUCGGAAGAGCACACGU", "Kd": "38 ± 5"}, {"binder": "target 1 insC 3' of 17 (mixed) RNA 1: CACCCGUGCAAAAAUGCAGGGGUCUAAAACUGAGCGGAUAACCUCUCUAUGG RNA 2: GGGAAUGGAUCCACAUCUACGAAUUCGUACCAUAGCAGAGGUUAUCCGCUCACCGAGAUCGGAAGAGCACACGU", "Kd": "50 ± 11"}, {"binder": "target 1 insA 3' of 8,insA 3' of 7 (mixed) RNA 1: CACCCGUGCAAAAAUGCAGGGGUCUAAAACUGAGCGGAUAACCUCUCUAUGG RNA 2: GGGAAUGGAUCCACAUCUACGAAUUCGUACCAUAGAGAGGUUAUACACGCUCACCGAGAUCGGAAGAGCACACGU", "Kd": "11.3 ± 0.5"}, {"binder": "target 1 insU 3' of 22,insC 3' of 8 (mixed) RNA 1: CACCCGUGCAAAAAUGCAGGGGUCUAAAACUGAGCGGAUAACCUCUCUAUGG RNA 2: GGGAAUGGAUCCACAUCUACGAAUUCGUACUCAUAGAGAGGUUAUCCCGCUCACCGAGAUCGGAAGAGCACACGU", "Kd": "~100"}]}]}
